Test results reported in PMC10897367, “Functional and structural asymmetry suggest a unifying principle for catalysis in membrane-bound pyrophosphatases” (EMBO Reports, 2024).

B1: K+-independent H+-pumping membrane-bound pyrophosphatase from Pyrobaculum aerophilum (PaPPase), wild type (enzyme, UniProt Q8ZWI8 1-721, looked up)
chain: MNMISYALLGVILGISGVIYAVYLAVWVLRQDPGNEKMRFISQAIATGARAYLFRQYRTLAVLLVILAVLILVAIDMPRRTFGLTALAFIVGALGSMLAGYLGMYVTTRSASRVAQAAATGGMGKALLVSWRAGAVMGLSLASIALLLISGFYLVFRSVLPDDWAVPLVALGFGASLVTLFMRVGGGIYTKAADLGADLVGKVEAGIPEDDPRNPGVIADNVGDNVGDVAGMAADVYESYIVTVTAAIFLAAILGLPTQFIEAIILFAALALVATFAGVNLLKTTGVKHPLSSISLAIYATIGLSVVLFFIGAFTLGLDSTKALALAATTSLGAVIAPLIVKITDYYTSYNYGPVRKIAEQAKISPATVIITGYGVGLMSAIPVIAVIVAVLGISYMIGYYTVPVSGFGELSKYLAGIFGTAMASVGLLVVAGIIITADSYGPVSDNAGGVVEMAGLPDEVREITDVLDSVGNTTKATTKGYAIASAALAALVLFIALIFEIVYSASKILGKGIVDMISESLSGLQLINANVLIGAFLGVALVYFFSSRTLEAVGRTAMEIVEEIRRQFREKPGILEWKEQPDYARVVDIATRRALGEFLIPGLAAIVLPLITGLLLGWNALAGLIMGAIVAGVPRALLMANAGGAWDNAKKYIEIQGLKKTEMHKAAVIGDTVGDPMKDTVGPSLNPLIKVLNTLSVVFTYVIVSTNIALGIWPSGLLPF
notes: No tag cleavage is mentioned; also called PaPPase:Mg5IDP; K+-independent H+-PPase; source: S. cerevisiae BJ1991, purified (hot-solve solubilisation, nickel-NTA; DM for crystals)
B2: K+-dependent Na+-pumping membrane-bound pyrophosphatase from Thermotoga maritima (TmPPase), wild type (enzyme, UniProt Q9S5X0 1-726, looked up)
chain: MYVAALFFLIPLVALGFAAANFAAVVRKPEGTERMKEISSYIRSGADSFLAHETKAIFKVAIVIAILLMIFTTWQTGVAFLLGAVMSASAGIVGMKMATRANVRVAEAARTTKKIGPALKVAYQGGSVMGLSVGGFALLGLVLVYLIFGKWMGQVDNLNIYTNWLGINFVPFAMTVSGYALGCSIIAMFDRVGGGVYTKAADMAADLVGKTELNLPEDDPRNPATIADNVGDNVGDVAGLGADLLESFVGAIVSSIILASYMFPIYVQKIGENLVHQVPKETIQALISYPIFFALVGLGCSMLGILYVIVKKPSDNPQRELNISLWTSALLTVVLTAFLTYFYLKDLQGLDVVGFRFGAISPWFSAIIGIFSGILIGFWAEYYTSYRYKPTQFLSKSSIEGTGMVISNGLSLGMKSVFPPTLTLVLGILFADYFAGLYGVAIAALGMLSFVATSVSVDSYGPIADNAGGISEMCELDPEVRKITDHLDAVGNTTAAIGKGFAIGSAIFAALSLFASYMFSQISPSDIGKPPSLVLLLNMLDARVIAGALLGAAITYYFSGYLISAVTKAAMKMVDEIRRQAREIPGLLEGKAKPDYNRCIEITSDNALKQMGYPAFIAILTPLVTGFLLGAEFVGGVLIGTVLSGAMLAILTANSGGAWDNAKKYLEAGNLEGYGKGSEPHKALVIGDTVGDPLKDTVGPSLDILIKIMSVVSVIAVSIFKHVHLF
notes: No tag cleavage is mentioned; also called K+-dependent Na+-PPase; Na+-PPase; source: S. cerevisiae BJ1991, purified (hot-solve solubilisation, nickel-NTA; OGNG)

Experiments:
[1] = molecular target: the molecule itself; test: crystal structure; PaPPase in DM with 2 mM IDP, vapour diffusion, 30-33% PEG 400, 0.1 M MES pH 6.5, 0.05 M LiSO4, 0.05 M NaCl, 20 °C; eight datasets combined, molecular replacement with a 5LZQ-based model
[2] = molecular target: the molecule itself; test: crystal structure; time-resolved cryo-trapping: TmPPase in OGNG crystallised with K4PPi and without Na+, soaked in a Na+ trigger solution for 0-3600 s, flash cooled; molecular replacement with 4AV3

Protein	binding result [1]	binding result [2]
B1	binds	
B2		binds
